Results on 41 sequences are retold here after the nanobody polyreactivity screen of Harvey et al. (2022).

The nature of this series: yeast display, Sf9 membrane polyspecificity reagent, FACS + sequencing; frameworks hold sequencing errors. The procedure, abridged: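 Galactose induction of a Saccharomyces cerevisiae BJ5465 synthetic nanobody display library ran 36–48 hours. The cells were then stained for 1 hour at 4 °C with 10% biotinylated, detergent-solubilized Sf9 membrane reagent, pulled down on streptavidin microbeads and FACS-sorted into low and high (top ~1%) gates on expression and reagent-binding fluorescence. Labels for polyreactivity follow the gate of origin.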
Take “QVQLVESGGGLVQAGGSLRLSCAASGSIFYYYPMGWYRQAPGKERELVAAINSVGSTYADSVKGRFTISRDNAKNTVYLQMNSLKPEDSAVYYCENYYWGQGTQVTVSS”: the “polyreactivity (PSR sort gate)” value is “low polyreactivity”. With “QVQLVESGGGLVQAGGSLRLSCAASGSIFYYYTMGWYRQAPGKERELVAAINSGGNTYYADSVKGRFTISRDNAKNTVYLQMNSLKPEDTAVYYCAAGPLYYDYDYWGQGTQVTVSS”, the “polyreactivity (PSR sort gate)” value is given as “low polyreactivity”. As for “QVQLVESGGGLVQAGGSLRLSCAASGSIFYYYTMGWYRQSPGKERELVAAIRWSSGTTYYADSVKGRFTISRDKAKNTVYLQINSLKPEDTAVYYCAAGGHARTWYAYYYWGQGTQVTVSS”, the “polyreactivity (PSR sort gate)” value is “low polyreactivity”. On to “QVQLVESGGGLVQAGGSLRLSCAASGSIFYYYVRGWYRQAPGKEREFVAAISWGGDSTYYADSVKGRFTISRDNAKNTFYLQMNSLQPEDTAVYYCNADYPWSVVGYDYWAQGTQVTVSS”, for which the “polyreactivity (PSR sort gate)” value is on record as “low polyreactivity”. As for “QVQLVESGGGLVQAGGSLRLSCAASGSIHSLYTMGWYRQAPGKERELVARISRSGGSTYYADSVKGRFTISRDYAKNTVYLQMNSLKPEDTAVYYCADERKNKYDYWGQGTQVTVSS”, the entry is “high polyreactivity”. With “QVQLVESGGGLVQAGGSLRLSCAASGSIIDLYAMGWYRQAPGKERELVAAISFSGGSTYYADSVKGRFTISRDNAKNTVYLQMNSLKPEDTAVYYCAKDVRRTLRFRAFDYWGQGTQVSVSS”, the “polyreactivity (PSR sort gate)” value is listed as “low polyreactivity”. On to “QVQLVESGGGLVQAGGSLRLSCAASGSIIFRYAMGWSRQAPGKERELVARISWGGGRTYYADSVKGRFTISRDNAQNTVYLQMNSLKPEDSAVYYCNRAFWVNPGGFDYWGQGTQVTVSS”, for which the “polyreactivity (PSR sort gate)” value was “high polyreactivity”.

Regarding “QVQLVESGGGLVQAGGSLRLSCAASGSIIFYYAMGWYRQAPGKERDFVAGITYSGGITYYADSVKGRFTISRDNAKNTVYLQMNSMKPEDTAVYFCDYGGGVYQYGYWGQGTQVTVSS”, the “polyreactivity (PSR sort gate)” value is “low polyreactivity”. As for “QVQLVESGGGLVQAGGSLRLSCAASGSIIGDNTMGWYRPAPGKERELVAAISSSGSTYYADSVKGRFTISRDNAKNTVYLQMNSLKPEDTAVYYCAAYDYGHVEYGYWGQGSQVTVSS”, the entry is “low polyreactivity”; as for “QVQLVESGGGLVQAGGSLRLSCAASGSIIGRYTMGWYRQAPGKERELVAAISRSGGSTYYADSVKGRFTISRDNAKNTVYLQMNSLKPEDTAVYYCAARYRAKRRYYYWGQGTQVTVSS”, “high polyreactivity”. Consider “QVQLVESGGGLVQAGGSLRLSCAASGSIIGVNAMGWYRQAPGKERELVAAISSTGGSTYYADSVKGRFTISRDNAKNTVYLQMNSLKPEDTAVYYCNTDYSKSIGDGYAGFDYWGQGTQVTVSS”, for which the “polyreactivity (PSR sort gate)” value is recorded as “low polyreactivity”. As to “QVQLVESGGGLVQAGGSLRLSCAASGSIIGYYTMGWYRQAPGKEREFVAAISWSGGSTYYADSVKGRFTISRDNAKNTVYLQMNSLKPEDTAVYYCNADVYWEYDYCGQGTQVTVSS”, the “polyreactivity (PSR sort gate)” value is listed as “low polyreactivity”. Consider “QVQLVESGGGLVQAGGSLRLSCAASGSIIKWYAMGWYRQAPGKERELVAAISASGGSTYYADSVKGRFTISRDNAKHTVYLQMNSLKPEDTAVYYCNTDHYYSSRHYDYWGQGTQVTVSS”, for which the “polyreactivity (PSR sort gate)” value is reported as “low polyreactivity”.

Consider “QVQLVESGGGLVQAGGSLRLSCAASGSIILHNAMGWYRQAPGKERELVAGITGSGGSTYYADSVKGRFTISRDNAMNTVYLQMNSLKPEDTAVYYCAAGSRSRYYRYVYYKYVTMDYWGQGTQVTVSS”, for which the “polyreactivity (PSR sort gate)” value was “high polyreactivity”. On to “QVQLVESGGGLVQAGGSLRLSCAASGSIILHYAMGRYRHAPRKERELVAVIRGGGSTNYADSVKGRFTISRDNAKNSVYLQMNSLKPEDSAVYYCAADYEAYRYDFWGQGTQVTVSS”, for which the “polyreactivity (PSR sort gate)” value is listed as “high polyreactivity”. Consider “QVQLVESGGGLVQAGGSLRLSCAASGSIINAYAMGWYRPAPGKERELVAAINSGGTTYYADSVKGRFTISRDNAKNTVYLQMISLKPEDTAVYYCNAVSKWAIYDYWGQGTQVTVSS”, for which the “polyreactivity (PSR sort gate)” value is recorded as “high polyreactivity”. In the case of “QVQLVESGGGLVQAGGSLRLSCAASGSIISYYAMGWYRQAPGKERELVAAISWSGGSTYYADSVKGRFTISRDNAKNTVYLQMNSLKPEDTAVYYCNTVRRLKRYSSYGHDYWGQGTQVTVSS”, the “polyreactivity (PSR sort gate)” value is “high polyreactivity”. With “QVQLVESGGGLVQAGGSLRLSCAASGSIITGYAMGWYRQAPGKERELVAAITGNAGSTYYADSVKGRFTISRDNAKNTVYLQMNSLKPEDTAVYYCNARSWYVRVDYWGQGTQVTVSS”, the “polyreactivity (PSR sort gate)” value is given as “low polyreactivity”. With “QVQLVESGGGLVQAGGSLRLSCAASGSIIVLNAMGWYRQAPGKERELVAAITSGGSTYYADSVKGRFTISRDNAKNTVYLQMNSLKPEDTAVYYCNALDLSPSYKYDYWGQGTQVTVSS”, the “polyreactivity (PSR sort gate)” value is listed as “low polyreactivity”. Consider “QVQLVESGGGLVQAGGSLRLSCAASGSIIVWNAMGWYRQAPGKERELVAAITWSGVTTYYADSVKGRFTISRDNAKNTVYLQMNSLKPEDTAVYYCAAGRTRRKFDYWGQGTQVTVSS”, for which the “polyreactivity (PSR sort gate)” value is reported as “low polyreactivity”. Take “QVQLVESGGGLVQAGGSLRLSCAASGSIIVYNTMGWYRQAPGKERGLVAAITVRDDSTYYADSVKGRFTISRDNAKNTVYLQMNSLKPEDTAVYYCNVRKTWYGYSVTGRYDYWGQGTEVTVSS”: the “polyreactivity (PSR sort gate)” value is “low polyreactivity”. Take “QVQLVESGGGLVQAGGSLRLSCAASGSIIYRYVMGWYRQAPGKERESVAAISWRGTNTYADSVKGRFTISRDNAKNTVYLQMNSLKPEDTAVYYCAARKWDRYRDFEYWGQGTQVTVSS”: the “polyreactivity (PSR sort gate)” value was “high polyreactivity”. Regarding “QVQLVESGGGLVQAGGSLRLSCAASGSIIYTNAMGRYRQAPGKEREVVAAITGTTTTNYADSVKGRFTISRDNAKNTVYVQMNSLKPEDTAVYYCNADYDRSRVYYSVELYDYWGQGTQVTVSS”, the “polyreactivity (PSR sort gate)” value was “low polyreactivity”. As for “QVQLVESGGGLVQAGGSLRLSCAASGSIIYWYAMGWYRQAPGKERELVADISRGGITYYADSVKGRFTISRDNAKNTVYLQMNSLKPEDTAVYYCSKTHYGVQRLDSWGQGTQVTVSS”, the entry is “low polyreactivity”. Turning to “QVQLVESGGGLVQAGGSLRLSCAASGSIIYYNAMGWYRQAPAKERELVAAITGSGGSTYYADSVKGRFTISRDNAINTVYLQMNSLKPEDTAVYDCAADYSLYGWWFRNDYWGQGTQVTVSS”, the “polyreactivity (PSR sort gate)” value is recorded as “low polyreactivity”. As to “QVQLVESGGGLVQAGGSLRLSCAASGSIIYYYAMGWYRQAPGKERELVAAISASGGRTYYADSVKGRFTISRDNAKNTVYLQMNSLKPEDTAVYYCAKRGTLGSYYYWGQGTQVTVSS”, the “polyreactivity (PSR sort gate)” value is listed as “high polyreactivity”. On to “QVQLVESGGGLVQAGGSLRLSCAASGSIKDNVMGWYRQAPGKERELVAAITRSAGRTYYADSVMGRFTISRDNEKNTVYLQMNSLKPEDTAVYYCASQAERYGYEYWGQGTQVTVSS”, for which the “polyreactivity (PSR sort gate)” value is “low polyreactivity”.

On to “QVQLVESGGGLVQAGGSLRLSCAASGSILAANAMGWYRQAPGKERELVAAIDWTGGDTYYADSVKGRFTISRDNAKNTVYLQMNSLKPEDTAVYYCAAEFVWPSIAYDVEYDYWGQGTQVTVSS”, for which the “polyreactivity (PSR sort gate)” value is given as “low polyreactivity”. As for “QVQLVESGGGLVQAGGSLRLSCAASGSILAGNVMGWYRQAPGKERELVAAITGSGGITYYADSVKGRFTISRDNAKNTVYLQMNSLKPEDTAVYYCNAVPDTRSGELDYWGQGTQVTVSS”, the entry is “low polyreactivity”; as for “QVQLVESGGGLVQAGGSLRLSCAASGSILAVNAMGWYRQAPGKERELVAAISSRGGSTSYADSVKGRFTISRDNAKNTVYLQMNSLKPEDTAVYYCAVRAVRRLRTSVPVRFYYWGQGTQVTVSS”, “high polyreactivity”; as for “QVQLVESGGGLVQAGGSLRLSCAASGSILDSNAMGWYRPAPGKERELVAAITSGGSTYYADSVKGRFTISRDNAKNTVYLQMNSLKPEDTAVYYCAAAYLGYGAVQPSYEGGYWGQGTQVTVSS”, “low polyreactivity”. Turning to “QVQLVESGGGLVQAGGSLRLSCAASGSILFYAMGWYRQAHGKERELVAAITWRGGSTFYADSVKGRFTISRDNAKNTVYLQMNSLKPDDTAVYYCAASYYRYGHRSRGRYYYWGQGTQVTVSS”, the “polyreactivity (PSR sort gate)” value is listed as “high polyreactivity”. With “QVQLVESGGGLVQAGGSLRLSCAASGSILGDYAMGWDRQAPGKEREFVAAIDGSDGSTYYADSVKGRFTISRDNAKNTVYLQMNILKPEDTEVYYCAATDYDTYRSSWYVYWGQCTQVTVSS”, the “polyreactivity (PSR sort gate)” value was “low polyreactivity”.

As to “QVQLVESGGGLVQAGGSLRLSCAASGSILGINVMGWYRQAPGKERELVAAISWRVGRTYYADSVKGRFTISRDNAKKTDDLQMNSLKPEDTAVYYCNVDRWGNIPVGDYDYWGQGTEVTVSS”, the “polyreactivity (PSR sort gate)” value is “high polyreactivity”. In the case of “QVQLVESGGGLVQAGGSLRLSCAASGSILGLYAMGWYRQAPGKERELVAAISSGGSTYYADSVKGRFTISRDNAKNTVYLQMNSLKPEDSAVYYCAADLSWSRVVFGDYDYWGQGTQVTVSS”, the “polyreactivity (PSR sort gate)” value is on record as “low polyreactivity”. Turning to “QVQLVESGGGLVQAGGSLRLSCAASGSILGRYAMGWYRQAPGKERELVAAITNRGGSTYYADSVNGRFTISRDNAKNTVYLQMNSLKPEDTAVYYCAAPYSAKELYYRMDYWGQGTQVTVSS”, the “polyreactivity (PSR sort gate)” value is “high polyreactivity”.

With “QVQLVESGGGLVQAGGSLRLSCAASGSILGTYAMGWTIQAPGKERELVAAISSSGRTSYADSEKGRFTISRDNAKNTVYLQMNSLKPEDTAVYYCNASNYIVLINDPDAAPWLYDYWGQVTQVTVSS”, the “polyreactivity (PSR sort gate)” value is “low polyreactivity”.

Turning to “QVQLVESGGGLVQAGGSLRLSCAASGSILGTYAMGWYRQAPGKERELVAAITLSTDGTYYADSVKGRFTISRDNAKNTVYLQMNSLKPEDTAVDYCAAPWNWRWVTQWGYYVRADYFWGQGTQVTVSS”, the “polyreactivity (PSR sort gate)” value is listed as “low polyreactivity”. For “QVQLVESGGGLVQAGGSLRLSCAASGSILGYYAMGWYRQAPGKERELVAAISSGGSTNYADSVKGRFTISRDNAKNTVYLQMNSLKPEDTAVYYCAADRTYHGGFDYWGQGTQVTVSS”, the “polyreactivity (PSR sort gate)” value is given as “low polyreactivity”. Take “QVQLVESGGGLVQAGGSLRLSCAASGSILGYYAMGWYRQAPGKERELVADIDNGTSTYYADSVKGRFTISRDNANNTVYLQMISLKPEDTAVYYCADEYYSRYFQSYYWGQGTQVTVSS”: the “polyreactivity (PSR sort gate)” value is given as “low polyreactivity”. Regarding “QVQLVESGGGLVQAGGSLRLSCAASGSILGYYAMRWYRQAPGKDRELVAAISSGGSTNYADSVKGRFTISRDNAKNTVYLQMNSLKPEDTAVYYCAADRTYHGGFDYWGLGTQVTVSS”, the “polyreactivity (PSR sort gate)” value was “low polyreactivity”.
